From patent US20060063727, “Tr4/tr2 response elements” (published 2006)

Tests used:
[1] = target: T1, TR4 orphan receptor (NR2C2) (Homo sapiens) (UniProt P49116); assay: competition; settings: competitive EMSA
T1 sequence: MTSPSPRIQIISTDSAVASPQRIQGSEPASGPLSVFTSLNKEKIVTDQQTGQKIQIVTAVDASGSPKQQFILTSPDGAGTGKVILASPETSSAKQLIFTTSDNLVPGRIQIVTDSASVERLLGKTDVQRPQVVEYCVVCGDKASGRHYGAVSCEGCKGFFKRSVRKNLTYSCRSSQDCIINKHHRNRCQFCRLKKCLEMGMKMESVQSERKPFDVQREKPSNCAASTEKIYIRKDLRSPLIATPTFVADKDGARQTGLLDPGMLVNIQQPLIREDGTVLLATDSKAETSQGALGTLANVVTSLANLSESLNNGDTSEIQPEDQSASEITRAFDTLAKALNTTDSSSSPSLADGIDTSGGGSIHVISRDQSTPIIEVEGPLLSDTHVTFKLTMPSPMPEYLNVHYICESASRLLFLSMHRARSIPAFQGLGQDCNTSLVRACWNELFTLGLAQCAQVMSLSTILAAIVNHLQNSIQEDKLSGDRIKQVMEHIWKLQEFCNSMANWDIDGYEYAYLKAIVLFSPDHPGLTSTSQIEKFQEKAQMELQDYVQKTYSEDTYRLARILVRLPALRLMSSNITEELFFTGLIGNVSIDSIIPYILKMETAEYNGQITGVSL

[2] = target: T2, TR2 orphan receptor (TR2-11, NR2C1) (Homo sapiens, UniProt P13056 SEQ:1-603); assay: EMSA; competed by excess unlabeled oligo; supershift with anti-TR2 G204; settings: tags: none stated, pSG5-hTR2-11, TNT rabbit reticulocyte lysate; label: 32P
T2 chain: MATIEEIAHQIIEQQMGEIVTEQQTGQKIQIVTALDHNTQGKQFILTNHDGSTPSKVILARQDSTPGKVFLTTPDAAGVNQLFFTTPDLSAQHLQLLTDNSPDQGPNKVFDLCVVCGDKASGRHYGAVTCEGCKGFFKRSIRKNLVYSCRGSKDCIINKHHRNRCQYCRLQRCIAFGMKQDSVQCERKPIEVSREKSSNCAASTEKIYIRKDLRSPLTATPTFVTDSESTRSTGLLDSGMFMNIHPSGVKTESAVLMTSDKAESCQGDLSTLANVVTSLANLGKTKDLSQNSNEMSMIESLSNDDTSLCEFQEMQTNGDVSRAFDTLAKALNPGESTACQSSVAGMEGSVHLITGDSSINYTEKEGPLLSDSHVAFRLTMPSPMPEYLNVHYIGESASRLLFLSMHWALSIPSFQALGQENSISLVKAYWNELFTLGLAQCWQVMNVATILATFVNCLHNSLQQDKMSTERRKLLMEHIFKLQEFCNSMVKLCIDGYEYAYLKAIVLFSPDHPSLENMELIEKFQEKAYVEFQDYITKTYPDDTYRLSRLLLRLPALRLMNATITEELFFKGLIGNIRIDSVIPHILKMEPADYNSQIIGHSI
Protocol: EMSA analysis was performed as described previously (Lee, H. J., and Chang, C. (1995) J. Biol. Chem. 270, 5434-5440). […] For competition reactions, unlabeled HPV-16 DR4RE oligonucleotides were mixed with labeled probe prior to its addition to the reaction. Antibody shift analysis involved the addition of 1 μl of the monoclonal anti-TR2 orphan receptor antibody, G204, to the reaction for 15 min., at room temperature, prior to gel loading.
The site consists of two consensus A(G/T)(G/T)TCA half sites with a spacing of 4 nucleotides (ATGTCAccctAGTTCA). To determine whether TR2 was able to bind the HPV-16 DR4RE, gel shift analysis was performed. […] Also in FIG. 3A, a mock in vitro transcription/translation reaction was used in lane 3, and lane 4 contains ³²P-labeled HPV-16 DR4RE alone. To further confirm the binding specificity of TR2 for the HPV-16 DR4RE, a TR2-specific monoclonal antibody was added, resulting in an upward shift of the labeled complex (FIG. 3B).

[3] = target: T2, TR2 orphan receptor (TR2-11, NR2C1); assay: EMSA; Scatchard; 25 mM Tris pH 8.0, 50 mM KCl, poly(dI.dC); settings: tags: none stated, pSG5-hTR2-11, TNT rabbit reticulocyte lysate; label: 32P
Protocol: Electrophoretic mobility shift assay analysis was performed as previously described (Jiang, C. K. et al. (1991) J Invest Dermatol 97, 969-973). The oligonucleotides were 5′ end labeled with γ-³²P ATP (specific activity=6000 Ci/mmole) (New England Nuclear) by T4 polynucleotide kinase. The specific activity reached 2-8×10⁸ cpm/μg. Labeled oligonucleotides (0.1 ng) were incubated with in vitro translated proteins, in the presence or absence of unlabeled oligonucleotide competitor or rabbit antiserum against TR2 (Cooney, A. J. et al. (1993) J Biol Chem 268, 4152-4160), for 15 min at room temperature. The binding buffer contained 25 mM Tris-HCl (pH 8.0), 10% glycerol, 50 mM KCl, 2 mM EDTA, 0.05% TritonX-100, 5 mM DTT, 1% β-mercaptoethanol, 5 ng/ml bovine serum albumin, 1.5 units/ml aprotinin, and 1 μg poly(dI.dC) (Pharmacia). […] The radioactive gels were analyzed by PhosphorImager (Molecular Dynamics). […]
To clarify the potential mechanism for the differential regulation of PPARα signal pathway by TR2 and TR4, the Kds (equilibrium dissociation constants) for TR2 and TR4 binding to PPRE were calculated using Scatchard analysis. […] The Kd values calculated here were consistent with the range of Kd values for nuclear receptors and their hormone response elements.

ERE (palindrome)
IC50 ([1]; weakest natural element, bound poorly, range end assigned by order): 85 ng

DR6 synthetic
IC50 ([1]; range end assigned by order DR6>DR5>DR1>DR3>DR2>DR4): 0.08 ng

DR4 synthetic
IC50 ([1]; range end assigned by order, weakest synthetic DR): 0.24 ng

CRBPII (DR1)
IC50 ([1]; best of natural elements): 0.023 ng

B1: HPV-16 DR4RE (dsDNA)
DNA 1: ATGTCACCCTAGTTCA
DNA 2: TGAACTAGGGTGACAT
binding result [2]: binds

B2: PPRE (rat acyl-CoA oxidase) (dsDNA)
DNA 1: GTCGACAGGGGACCAGGACAAAGGTCACGTTCGGGAGTCGAC
DNA 2: GTCGACTCCCGAACGTGACCTTTGTCCTGGTCCCCTGTCGAC
Kd [3]: 1.23 nM
